In publication PMC9151340:

T1: MtrA (UniProt F2R521 1-225)
T1 sequence: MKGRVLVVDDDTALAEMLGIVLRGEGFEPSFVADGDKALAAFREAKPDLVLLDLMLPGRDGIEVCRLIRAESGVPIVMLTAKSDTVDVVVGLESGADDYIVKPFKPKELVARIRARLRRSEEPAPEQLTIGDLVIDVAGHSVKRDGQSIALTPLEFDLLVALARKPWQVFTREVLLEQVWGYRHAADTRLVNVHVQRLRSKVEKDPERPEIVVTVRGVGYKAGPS

T2: GlnR (UniProt F2RFQ1 1-276)
T2 sequence: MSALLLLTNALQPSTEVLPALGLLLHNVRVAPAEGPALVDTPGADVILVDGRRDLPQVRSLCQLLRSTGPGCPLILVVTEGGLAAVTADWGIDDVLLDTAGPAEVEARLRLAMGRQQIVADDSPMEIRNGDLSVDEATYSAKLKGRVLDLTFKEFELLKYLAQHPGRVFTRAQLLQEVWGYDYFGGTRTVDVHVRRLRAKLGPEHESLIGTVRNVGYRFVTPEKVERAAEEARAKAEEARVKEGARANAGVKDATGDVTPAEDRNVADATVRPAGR


These binders were tested against T1, MtrA (assay: EMSA).

Row | Binder | binding result
1 | nirB-WT (dsDNA) DNA 1: GGAGATCAGCGTTCCGTACGGGAAACAGTCGGGATGCCGCCGGGTAACACCGGCCGCGC DNA 2: GCGCGGCCGGTGTTACCCGGCGGCATCCCGACTGTTTCCCGTACGGAACGCTGATCTCC | binds
2 | mtrA WT (SVEN2756 WT) (dsDNA) DNA 1: TACGGTGCAGGCCGACCACGGGGGCCCACGGGGGTGACATCCATGTCTGGCATCAACAC DNA 2: GTGTTGATGCCAGACATGGATGTCACCCCCGTGGGCCCCCGTGGTCGGCCTGCACCGTA | binds
3 | mtrA M3 (SVEN2756 M3) (dsDNA) DNA 1: TACGGTGCAGGCCGACCACGGGGGCCCACGGGGAGGCTATCCATACTTGGCATCAACAC DNA 2: GTGTTGATGCCAAGTATGGATAGCCTCCCCGTGGGCCCCCGTGGTCGGCCTGCACCGTA | no binding
4 | mtrA M1 (SVEN2756 M1) (dsDNA) DNA 1: TACGGTGCAGGCCGACCACGGGGGCCCACGGGGAGGCTATCCATGTCTGGCATCAACAC DNA 2: GTGTTGATGCCAGACATGGATAGCCTCCCCGTGGGCCCCCGTGGTCGGCCTGCACCGTA | no binding
5 | mtrA M2 (SVEN2756 M2) (dsDNA) DNA 1: TACGGTGCAGGCCGACCACGGGGGCCCACGGGGGTGACATCCATACTTGGCATCAACAC DNA 2: GTGTTGATGCCAAGTATGGATGTCACCCCCGTGGGCCCCCGTGGTCGGCCTGCACCGTA | no binding
6 | SVEN1860 WT (dsDNA) DNA 1: GTTTCATCAGTGTTTGACCACCGGGTCACGCCCTGGTAACACCAGTCTGTGAGCCTGGT DNA 2: ACCAGGCTCACAGACTGGTGTTACCAGGGCGTGACCCGGTGGTCAAACACTGATGAAAC | binds

Each binder was assayed against T2, GlnR (assay: EMSA).

Row | Binder | binding result
7 | mtrA WT (SVEN2756 WT) (dsDNA) DNA 1: TACGGTGCAGGCCGACCACGGGGGCCCACGGGGGTGACATCCATGTCTGGCATCAACAC DNA 2: GTGTTGATGCCAGACATGGATGTCACCCCCGTGGGCCCCCGTGGTCGGCCTGCACCGTA | binds
